# How the values were obtained:
# [1] = target: Globodera pallida Clade 3 GS-like effector Gpa-GSS12 (Globodera pallida); assay: SEC; S200 analytical gel filtration column; purified proteins migrate between the 150 kDa and 75 kDa protein standards, at a mass consistent with a homodimer (50 kDa per subunit)
# [2] = target: Globodera pallida Clade 3 GS-like effector Gpa-GSS22 (Globodera pallida); assay: as above
# [3] = target: Globodera pallida Clade 3 GS-like effector Gpa-GSS30 (Globodera pallida); assay: as above
# [4] = target: Solanum tuberosum glutathione synthetase St-GSS1 (Solanum tuberosum); assay: as above
# [5] = target: Globodera pallida Clade 2 glutathione synthetase Gpa-GSS5 (Globodera pallida); assay: as above
# [6] = target: Globodera pallida Clade 3 GS-like effector Gpa-GSS17 (Globodera pallida); assay: as above
# [7] = target: Globodera pallida Clade 3 GS-like effector Gpa-GSS24 (Globodera pallida); assay: as above
# [8] = target: Globodera pallida Clade 1 glutathione synthetase Gpa-GSS1 (Globodera pallida); assay: as above
# St-GSS1 = target: T1, St-GSS1 (Solanum tuberosum, UniProt M1CSC4); assay: malachite green phosphate release from ATP; type: biochemical; conditions: glycine, 20 mM MgCl2, 5 mM DTT, 100 mM HEPES pH 7.5, 30 °C
# T1 construct: gene LOC102589405; His6-SUMO tag cleaved by 3C protease (pOPINS3C); E. coli SHuffle; homodimer, about 50 kDa per subunit
# T1 sequence (M1CSC4 1-483): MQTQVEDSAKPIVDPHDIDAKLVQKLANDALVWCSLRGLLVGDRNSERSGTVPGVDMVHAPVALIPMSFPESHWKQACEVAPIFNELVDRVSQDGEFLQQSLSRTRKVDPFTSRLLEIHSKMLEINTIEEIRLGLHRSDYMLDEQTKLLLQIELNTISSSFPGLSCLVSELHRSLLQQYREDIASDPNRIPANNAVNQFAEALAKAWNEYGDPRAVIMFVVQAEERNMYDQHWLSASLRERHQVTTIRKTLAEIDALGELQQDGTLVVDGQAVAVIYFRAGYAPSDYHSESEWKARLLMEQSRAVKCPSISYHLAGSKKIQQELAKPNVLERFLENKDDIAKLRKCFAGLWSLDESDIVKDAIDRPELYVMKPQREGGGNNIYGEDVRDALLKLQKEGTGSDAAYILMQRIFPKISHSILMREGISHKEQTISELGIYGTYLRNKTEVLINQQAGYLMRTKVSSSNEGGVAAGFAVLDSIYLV
# Gpa-GSS1 = target: T2, Gpa-GSS1 (Globodera pallida, UniProt A0A183BS86); assay: malachite green phosphate release from ATP; type: biochemical; conditions: glycine, 20 mM MgCl2, 5 mM DTT, 100 mM HEPES pH 7.5, 30 °C
# T2 construct: full-length; His6-SUMO tag cleaved by 3C protease (pOPINS3C); E. coli SHuffle; homodimer, about 50 kDa per subunit
compound,measurement,setting,value
Globodera pallida Clade 3 GS-like effector Gpa-GSS12 (natural protein),stoichiometry N,[1],2
Globodera pallida Clade 3 GS-like effector Gpa-GSS22 (natural protein),stoichiometry N,[2],2
Globodera pallida Clade 3 GS-like effector Gpa-GSS30 (natural protein),stoichiometry N,[3],2
Solanum tuberosum glutathione synthetase St-GSS1 (enzyme),stoichiometry N,[4],2
Globodera pallida Clade 2 glutathione synthetase Gpa-GSS5 (enzyme),stoichiometry N,[5],2
Globodera pallida Clade 3 GS-like effector Gpa-GSS17 (natural protein),stoichiometry N,[6],2
Globodera pallida Clade 3 GS-like effector Gpa-GSS24 (natural protein),stoichiometry N,[7],2
Globodera pallida Clade 1 glutathione synthetase Gpa-GSS1 (enzyme),stoichiometry N,[8],2
N[C@@H](CCC(=O)N[C@@H](CS)C(=O)O)C(=O)O [γ-EC],Km,St-GSS1,The Km for γ-EC for canonical GS enzymes.
same,Km,Gpa-GSS1,The Km for γ-EC for canonical GS enzymes.

# From paper PMC5919673, “Effector gene birth in plant parasitic nematodes: Neofunctionalization of a housekeeping glutathione synthetase gene” (PLoS Genetics, 2018)
